Results on four compounds are retold here after paper PMC12987686 (RSC pharmaceutics, 2025).

Peptide text beside a SMILES is read from it.

For data set [1] the following is noted: cited from earlier work.
Data set [2] in a line: in vivo. Conditions: CD1, mouse, iv, total radioactivity.
In data set [3] the test system is CD1 mice with myocardial infarction. To be noted: mouse, in vivo.
Data set [4] is described as follows: in vivo. On the set-up: species or system mouse. Conditions: CD1, mouse, iv, total radioactivity.
The test system of data set [5] is CD1 mice with myocardial infarction. The data set is described as follows: in vivo. On the set-up: species or system mouse. Conditions: mouse.
Data set [6] can be described thus: Stability in the final formulation by analytical rad-HPLC. Format: physicochemical. To be noted: final formulation 10/30/60 v/v/v ethanol/1.0 M sodium acetate/saline, room temperature, mean ± SD, n = 4.
Data set [7] is described as follows: in vivo. To be noted: CD1, mouse, iv, total radioactivity. Also on record: species or system mouse. The source holds these as a separate data set.
Another data set relates to healthy CD1 mice. The data set is described as follows: in vivo. Also on record: species or system mouse. Conditions: mouse.

On to `[82Rb]` [^82Rb], for which the first-pass extraction fraction in data set [1] is ~ 65%.
In the case of `[15OH2]` [^15O-water], the first-pass extraction fraction in data set [1] is ~ 100%.
For `CC(C)C[C@H](NC(=O)[C@H](Cc1c[nH]cn1)NC(=O)[C@H](Cc1c[nH]c2ccccc12)NC(=O)[C@@H]1CCCN1C(=O)[C@H](C)NC(=O)CN1CCN(CC(=O)O)CCN(CC(=O)O)CC1)C(=O)N[C@@H](CO)C(=O)N[C@@H](CO)C(=O)N[C@@H](CCC(N)=O)C(=O)N[C@@H](Cc1ccc(O)cc1)C(=O)N[C@@H](CO)C(=O)N[C@@H](CCCNC(=N)N)C(=O)N[C@H](C(=O)O)[C@@H](C)O` [[^68Ga]Ga-NOTA-CTP, metal not drawn] (HELM PEPTIDE1{[O=C(O)CN1CCN(CC(=O)O)CCN(CC(=O)[*:2])CC1].A.P.W.H.L.S.S.Q.Y.S.R.T}$$$$V2.0; N-terminus and C-terminus assumed), the SUV at 2 h in “in vivo [2]” (SUV Cecum) turned out to be 2.36 ± 2.24 SUV; in the data set “in vivo [2]” (SUV Heart) it was 0.02 ± 0.006 SUV; in the data set “in vivo [2]” (SUV Lung) it was 0.04 ± 0.02 SUV; in “in vivo [2]” (SUV Pancreas), 0.05 ± 0.06 SUV; in the data set “in vivo [4]” (2.29 MBq, SUV heart), 0.03 ± 0.02 SUV; in “in vivo [4]” (SUV Cecum) it was 2.28 ± 3.64 SUV. The SUV at 2 h in “in vivo [4]” (SUV Lung) is 0.04 ± 0.04 SUV; in the data set “in vivo [4]” (SUV Pancreas), 0.05 ± 0.04 SUV; in the data set “in vivo [7]” (2.29 MBq, SUV heart), 0.02 ± 0.01 SUV; in “in vivo [7]” (2.29 MBq, SUV kidneys) it was 0.1 SUV; in the data set “in vivo [7]” (2.29 MBq, SUV liver) it was 0.14 SUV; in “in vivo [7]” (2.29 MBq, SUV muscle), 0.19 ± 0.18 SUV. Besides, in “in vivo [7]” (SUV urinary bladder), the SUV at 2 h was determined as 9.02 ± 8.59 SUV. The “time of clearance from the blood” value (in data set [3]; with healthy CD1 mice) was at most 30 min in each case. Also, in data set [5], the “SUV Heart” value is 0.03 ± 0.02. The “radiochemical purity in the formulation” value in data set [6] (0 min post-synthesis) was found to be 98.78 ± 1.08%; in data set [6] (2 h post-synthesis), 92.52 ± 3.66%. Moreover, the SUV at 1 h in the data set “in vivo [7]” (2.29 MBq, SUV heart) was 0.04 ± 0.04 SUV; in the data set “in vivo [7]” (2.29 MBq, SUV kidneys), 0.92 ± 0.68 SUV; in the data set “in vivo [7]” (2.29 MBq, SUV liver) it was 0.69 ± 0.32 SUV; in “in vivo [7]” (2.29 MBq, SUV muscle), 0.18 ± 0.13 SUV; in “in vivo [7]” (2.29 MBq, SUV urinary bladder), 10.6 ± 6.1 SUV. The SUV in “in vivo [7]” (2.29 MBq, SUV kidneys) was determined as 2.64 ± 0.89 SUV; in the data set “in vivo [7]” (2.29 MBq, SUV liver) it was 1.42 ± 0.49 SUV; in the data set “in vivo [7]” (2.29 MBq, SUV muscle), 0.36 ± 0.12 SUV; in the data set “in vivo [7]” (2.29 MBq, SUV urinary bladder), 7.51 ± 3.49 SUV. Besides, the “SUV in left ventricle (LV) vs right ventricle (RV)” value in the data set on healthy CD1 mice is listed as “SUV in LV was lower than the RV”.
Regarding `CC(C)(C)n1ncc(OCc2ccc(COCC[18F])cc2)c(Cl)c1=O` [[^18F]F-flurpiridaz], the first-pass extraction fraction in data set [1] is recorded as 94%.
